In data set [1] the target is T1, P-TEFb/AFF4/Tat(1-57) core super elongation complex (CDK9/CycT1/AFF4/Tat) (Homo sapiens (CDK9, CycT1, AFF4)?; HIV-1 (Tat)) (UniProt P50750+O60563+Q9UHB7+P04608). The conditions noted are these: CITED mutational data (apparently), cited from earlier work.
Data set [2] deals with T1, P-TEFb/AFF4/Tat(1-57) core super elongation complex (CDK9/CycT1/AFF4/Tat) (Homo sapiens (CDK9, CycT1, AFF4)?; HIV-1 (Tat)). The experiment in a line: EMSA. The settings on record: 250x yeast tRNA. A general note: In EMSA bound probe runs differently from free probe, usually more slowly.

Where two headings read alike, the source gives them in different places.

These results are taken from US20230132667.

With “GGCAGAUCUGAGCCCAAAAGCUCUCUGCC [HIV-1 TAR loop mutant UGGG to CAAA]”, in data set [1] ([15-18], CAAA loop), the Kd was over 10 nM.
Regarding “GGCAGAUCUGAGCCUGGGAGCUCUCUGCC [HIV-1 TAR]”, the Kd in data set [1] (wild-type UGGG loop) was 0.23 nM; in data set [2] (0.5 nM RNA, 0-90 nM complex, 6% native gel), 0.34 nM; in data set [2] (TAR preincubated with 10 nM Palbociclib), 35.6 nM.
